Reference: US20220401480A1 (NOILE IMMUNE BIOTECH, published 2022)

Target: T1, recombinant fusion protein including mouse PD-1 and immunoglobulin Fc portion (mouse, UniProt Q02242 25-167, limits assumed)
T1 construct: also called mouse PD-1-Fc; not shown: immunoglobulin Fc portion
T1 sequence (looked up): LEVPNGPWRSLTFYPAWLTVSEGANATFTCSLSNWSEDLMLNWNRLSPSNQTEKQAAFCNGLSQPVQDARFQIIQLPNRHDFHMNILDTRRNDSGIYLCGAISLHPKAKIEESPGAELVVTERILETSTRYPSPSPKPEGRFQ
Test: ELISA: mouse PD-1-Fc immobilized in wells; scFv from conditioned medium of conv./PD-1 and 7x19/PD-1 CAR-T cells captured; detected with anti-FLAG tag or anti-6xHis tag; signal observed for both (FIG. 15)
Experimental: Prior to using various CAR-T cells in experiments, the concentration of anti-mPD-1 scFv (also referred to PD-1scFv) was measured using two kinds of ELISA kit. Specifically, a conditioned medium of the untransduced T cells, the anti-hCD20-CAR-expressing T cells, the anti-hCD20 CAR-IL-7/CCL19-expressing T cells, the anti-hCD20-CAR-anti-PD-1-antibody-expressing T cells, or the anti-hCD20-CAR-IL-7/CCL19-anti-PD-1-antibody-expressing T cells was collected after 2 days of cultivation, and the concentrations of […] in the conditioned medium were measured using ELISA. In the ELISA, a recombinant fusion protein including mouse PD-1 and immunoglobulin Fc portion was immobilized in the wells, PD-1 scFv was captured thereto, and an anti-FLAG tag or anti-6xHis tag was used for detection. In FIG. 15, the average value over the triplicate wells as well as the standard deviation thereof are indicated in the graph. In each graph, data are arranged from the left to the right: the untransduced T cells (uninf.), the anti-hCD20-CAR-expressing T cells (conv.), the anti-hCD20 CAR-IL-7/CCL19-expressing T cells (7×19), the anti-hCD20-CAR-anti-PD-1-antibody-expressing T cells (conv./PD-1), the anti-hCD20-CAR-IL-7/CCL19-anti-PD-1-antibody-expressing T cells (7×19/PD-1), and a culture medium only (data obtained by performing the same treatment on the culture liquid to which T cells were not added).

binding result: binds
B1: anti-mPD-1 scFv (anti-mouse-PD-1 scFv with FLAG tag and His tag, secreted by transduced mouse T cells) (scFv)
scFv: QFVLTQPKTVSESLGRTVTISCKRSSGSVGDYYVSWHQQRFGSSPKTVIYLDDERPSGVPKRFSGSIDSSSNSASLTITDLQTDDEADYFCLSYDSNNHFVFGSGTHLTVLGGGGSGGGGSGGGGSEVQLVESGGGLAQPGKSLKLSCEASGFTFSDYGMNWFRQAPGKGLEWVAYISSGSNKITYADTVKGRFTVSRDNGKNQLFLQMNNLKSEDTAIYYCVDSGFNSYSDVWGQGIQVTVSSDYKDDDDKFVEHHHHHH
notes: It was tested as conditioned medium and was not purified; also called anti-PD-1 scFv
